Data: PMC7902612 (2021)

Biological target: GST-BRCA1-N (N-terminal of BRCA1, 1-147 aa) (human, UniProt P38398 1-147)
Assay: MST

Chain of GST-BRCA1-N (N-terminal of BRCA1, 1-147 aa) (P38398 1-147): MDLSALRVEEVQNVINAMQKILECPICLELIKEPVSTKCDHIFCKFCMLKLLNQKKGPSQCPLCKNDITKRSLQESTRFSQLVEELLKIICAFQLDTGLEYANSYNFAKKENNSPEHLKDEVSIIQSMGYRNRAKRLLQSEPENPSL

Kd: 1340 nM
B1: GFP-BARD1^WT (natural protein)
chain: MPDNRQPRNRQPRIRSGNEPRSAPAMEPDGRGAWAHSRAALDRLEKLLRCSRCTNILREPVCLGGCEHIFCSNCVSDCIGTGCPVCYTPAWIQDLKINRQLDSMIQLCSKLRNLLHDNELSDLKEDKPRKSLFNDAGNKKNSIKMWFSPRSKKVRYVVSKASVQTQPAIKKDASAQQDSYEFVSPSPPADVSERAKKASARSGKKQKKKTLAEINQKWNLEAEKEDGEFDSKEESKQKLVSFCSQPSVISSPQINGEIDLLASGSLTESECFGSLTEVSLPLAEQIESPDTKSRNEVVTPEKVCKNYLTSKKSLPLENNGKRGHHNRLSSPISKRCRTSILSTSGDFVKQTVPSENIPLPECSSPPSCKRKVGGTSGRKNSNMSDEFISLSPGTPPSTLSSSSYRRVMSSPSAMKLLPNMAVKRNHRGETLLHIASIKGDIPSVEYLLQNGSDPNVKDHAGWTPLHEACNHGHLKVVELLLQHKALVNTTGYQNDSPLHDAAKNGHVDIVKLLLSYGASRNAVNIFGLRPVDYTDDESMKSLLLLPEKNESSSASHCSVMNTGQRRDGPLVLIGSGLSSEQQKMLSELAVILKAKKYTEFDSTVTHVVVPGDAVQSTLKCMLGILNGCWILKFEWVKACLRRKVCEQEEKYEIPEGPRRSRLNREQLLPKLFDGCYFYLWGTFKHHPKDNLIKLVTAGGGQILSRKPKPDSDVTQTINTVAYHARPDSDQRFCTQYIIYEDLCNYHPERVRQGKVWKAPSSWFIDCVMSFELLPLDS
